Reference: patent US11542480B2
Numbering of substitutions follows the chain as printed.

B1: Geobacillus kaustophilus HTA426 wild-type glycine oxidase (WT-GOX), SEQ ID NO: 1 (Geobacillus kaustophilus HTA426) (protein)
chain: MTHRYDVAIVGGGVIGAAIGFELAKRRHRVAIFEKGTMGSGASSAAAGMLGAQSEFSTSSPLVPLALQSRALMPALAEELRERTGIDIGLVEKGLIKLATTEEEADDLYRHYTFWRGIGEPVQWLTKGEALEMEPRLAAEALAGAMYIPGDGQVSAPDLAAALAYAAASAGACLYEYTEVFDIRSDSSGHVLDTTGGTFAAEAVVIASGAWAARLGARVGLSLSVYPVKGECVMVRAPVPLLQTTVFAKNGCYIVPKSGNRLLIGATSTPGTFDRRVSAGGVMNLLHRAAHLVPDIEQAEWVASWSGIRPQTEDGLPYLGEHPERRGLFVAAGHYRNGILLSPLTGLLVADLVERKETAFDLAPFSLTRHIGKVGVE
B2: Geobacillus kaustophilus HTA426 glycine oxidase variant V-GOX1, 251st glycine of SEQ ID NO: 1 substituted with glutamine (Gly251Gln; SEQ ID NO: 3 with Xaa251 = … (protein)
chain: B1 chain with G251Q

Key:
[1] = substrate: NCC(=O)O; assay: purified protein, by the assay type; assay type: biochemical, Geobacillus kaustophilus HTA426; settings: other: substrate glycine, 37° C., pyrophosphate, pH 8.5, WT-GOX, 60.0 °C
Excerpt: HTA426 is available, for example, from the National Research and Development Agency, RIKEN BioResource Research Center (RIKEN BRC) Microbe Division (JCM) (JCM12893).
However, a plasmid vector of pET-15b was used as a vector, and E. coli BL21 (DE3) was used as a host cell (host).
For convenience of explanation, the wild-type glycine oxidase is abbreviated as “WT-GOX”.

[2] = substrate: NCC(=O)O; assay: purified protein, by the assay type; assay type: biochemical, Geobacillus kaustophilus HTA426; settings: other: substrate glycine, 37° C., pyrophosphate, pH 8.5, purified V-GOX1, 70.0 °C
Description: For convenience of explanation, the mutant glycine oxidase is abbreviated as “V-GOX” in this example.
The enzyme activity in Table 2 is shown as the ratio (times) of the enzyme reaction rate (use of crude enzyme solution) of V-GOX when WT-GOX is used as reference (1).
Therefore, after purifying this V-GOX1, the molecular weight (SDS-PAGE), the optimum temperature, the optimum pH, thermal stability, pH stability, the specific activity, and the kinetic constant Km were evaluated. The results of the specific activity, thermal stability, and the kinetic constant Km are shown in Table 1 above, the specific activity is shown in FIG. 3A, and thermal stability is shown in FIG. 3B, and further, evaluation results of enzyme properties of V-GOX1 containing them are also shown in Table 3 together with the conditions.

Row | Protein | Km [1] [mM mM] | Km [2] [mM mM]
1 | B1 | 0.25 | –
2 | B2 | – | 0.20
